# Measurements reported in the supplement of paper PMC9112550, “Optimization of the antimicrobial peptide Bac7 by deep mutational scanning” (BMC Biology, 2022).
# System: Escherichia coli TOP10
# Test: shrunken log2 fold change of peptide-encoding DNA abundance (4.5 h post-induction vs induction); higher = less antimicrobial activity (less host growth inhibition)
# Conditions: time post-induction: 4.5 h; library: site-saturation at positions 5, 18, 19, 20
# 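Also: peptides expressed intracellularly from a pBAD plasmid library in pooled LB shake-flask culture, induced with 0.3% L-arabinose, DNA abundance read by NGS, three biological replicates, DESeq2 with apeglm shrinkage.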
row,Sequence,shrunken log2 fold change
1,RRIRTRPPRLPRPRPRPQQVPRP,-0.231
2,RRIRTRPPRLPRPRPRPMLAPRP,0.306
3,RRIRKRPPRLPRPRPRPQPWPRP,0.805
4,RRIRYRPPRLPRPRPRPWNDPRP,-0.0728
5,RRIRPRPPRLPRPRPRPDDFPRP,-0.371
6,RRIRYRPPRLPRPRPRPNDPPRP,-0.549
7,RRIRVRPPRLPRPRPRPKKYPRP,-0.411
8,RRIRMRPPRLPRPRPRPWRQPRP,0.331
9,RRIRDRPPRLPRPRPRPLTCPRP,0.254
10,RRIRHRPPRLPRPRPRPNMHPRP,1.05
11,RRIRWRPPRLPRPRPRPMPFPRP,-0.133
12,RRIRDRPPRLPRPRPRPLGLPRP,0.0955
13,RRIRHRPPRLPRPRPRPSLEPRP,0.0392
14,RRIRFRPPRLPRPRPRPQTAPRP,-0.337
15,RRIRHRPPRLPRPRPRPRTLPRP,-0.137
16,RRIRVRPPRLPRPRPRPRYWPRP,0.338
17,RRIRYRPPRLPRPRPRPHPFPRP,-1.3
18,RRIRMRPPRLPRPRPRPNQWPRP,2.38
19,RRIRARPPRLPRPRPRPISCPRP,0.0406
20,RRIRLRPPRLPRPRPRPLPIPRP,-0.129

row,Sequence,shrunken log2 fold change
1,RRIRQRPPRLPRPRPRPTCWPRP,0.0954
2,RRIRMRPPRLPRPRPRPGLCPRP,1.79
3,RRIRDRPPRLPRPRPRPCTSPRP,-0.000687
4,RRIRMRPPRLPRPRPRPANQPRP,0.191
5,RRIRQRPPRLPRPRPRPVHEPRP,0.536
6,RRIRLRPPRLPRPRPRPILNPRP,-0.389
7,RRIRNRPPRLPRPRPRPENMPRP,-0.262
8,RRIRFRPPRLPRPRPRPRGFPRP,0.27
9,RRIRCRPPRLPRPRPRPLYSPRP,-0.672
10,RRIRFRPPRLPRPRPRPHMRPRP,-0.0696
11,RRIRQRPPRLPRPRPRPKFPPRP,0.118
12,RRIRPRPPRLPRPRPRPHQIPRP,1.04
13,RRIRKRPPRLPRPRPRPGRVPRP,0.58
14,RRIRVRPPRLPRPRPRPWFLPRP,-0.386
15,RRIRGRPPRLPRPRPRPTVTPRP,1.34
16,RRIRHRPPRLPRPRPRPTTPPRP,0.0328
17,RRIRDRPPRLPRPRPRPIAQPRP,-0.0679
18,RRIRCRPPRLPRPRPRPPLAPRP,0.79
19,RRIRRRPPRLPRPRPRPMNFPRP,0.154
20,RRIRTRPPRLPRPRPRPWGVPRP,-0.0284

row,Sequence,shrunken log2 fold change
1,RRIRDRPPRLPRPRPRPIINPRP,0.423
2,RRIRPRPPRLPRPRPRPWCLPRP,-0.514
3,RRIRVRPPRLPRPRPRPWTIPRP,-0.281
4,RRIRIRPPRLPRPRPRPEMGPRP,-0.105
5,RRIRYRPPRLPRPRPRPMGFPRP,-0.179
6,RRIRDRPPRLPRPRPRPEIDPRP,0.0535
7,RRIRWRPPRLPRPRPRPSMGPRP,0.033
8,RRIRNRPPRLPRPRPRPAKSPRP,0.163
9,RRIRWRPPRLPRPRPRPFGCPRP,-0.274
10,RRIRKRPPRLPRPRPRPGVEPRP,1.09
11,RRIRQRPPRLPRPRPRPFRCPRP,-0.0452
12,RRIRVRPPRLPRPRPRPHIQPRP,-0.528
13,RRIRYRPPRLPRPRPRPREAPRP,0.469
14,RRIRVRPPRLPRPRPRPSWIPRP,-0.476
15,RRIRYRPPRLPRPRPRPDNLPRP,-0.196
16,RRIRKRPPRLPRPRPRPIWKPRP,-0.00277
17,RRIRGRPPRLPRPRPRPMCNPRP,0.31
18,RRIRIRPPRLPRPRPRPVWFPRP,-0.125
19,RRIRRRPPRLPRPRPRPRCVPRP,0.402
20,RRIRIRPPRLPRPRPRPEIGPRP,-0.0838
